Source: publication PMC3374832, “The Structure of the Oligomerization Domain of Lsr2 from Mycobacterium tuberculosis Reveals a Mechanism for Chromosome Organization and Protection” (PLoS ONE, 2012)

Target: the molecule itself
Assay: SDS-PAGE

B1: full-length Lsr2 from Mycobacterium tuberculosis (natural protein)
chain: not shown
notes: Lsr2 (Rv3597c) of Mycobacterium tuberculosis H37Rv, full length; also called Rv3597c
binding result: binds
